B1: TRIM35 (parent)
chain: DKELLCCSCQADPRHQGHRVQPVK
B2: TRIB1 (parent)
chain: SYVRSRKRLREEEAARLFKQIVSA

Variants of: B1
Experiment: protein stability index of a GFP-peptide fusion (GPS, HEK-293T) (PSI 1-6); higher = more stable
Conditions: c terminus: a fixed tail appended
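Note: lentivirally expressed fusions sorted by FACS into six bins by GFP to DsRed ratio, PSI derived from sequencing read proportions per bin multiplied by bin number.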

Protein stability index: each site, then its substitutions
C9: Q 4.65, N 4.6, S 4.47, T 4.28, A 3.85, L 3.09, K 4.64, R 4.42, Y 4.52, E 4.87, I 4.14, H 4.1, F 3.38, P 4.89, G 4.1, M 4.03, V 3.27, D 5.29
Q10: N 4.07, Y 3.49, M 3.27, C 3.38, P 3.91, S 2.89, D 4.1, E 4.44, L 2.85, I 3.87, H 3.79, G 2.6, V 3.29, K 3.8, A 3.41, F 3.01, T 4.04, R 3.68, W 2.53
R14: F 3.35, S 3.58, E 3.85, G 3.03, W 2.46, L 3.43, V 2.95, D 4.05, T 3.52, C 4.24, K 3.37, H 3.69, I 4.18, P 4.18, A 4.06, N 4.13, Q 3.75, M 3.97, Y 3.35
C7: G 4.23, I 3.29, D 4.67, R 3.76, S 4.06, L 3.66, W 3.9, N 4.1, P 4.03, K 3.88, E 4.44, H 4.03, Y 3.83, Q 4.5, T 4.18, F 3.38, V 3.87, A 4.12, M 3.62
S8: V 3.75, A 3.31, P 3.59, H 2.92, F 2.24, D 4.28, E 4.61, W 2.5, K 3.78, I 2.64, G 4.14, Q 3.05, C 4.16, Y 2.97, L 2.98, N 3.62, M 2.87
L5: R 3.32, F 3.55, A 3.65, Y 2.93, M 3.11, D 4.43, T 4.29, Q 4.36, H 3.91, W 3.18, C 3.88, K 3.58, I 3.76, N 2.66, S 4.44, E 4.08, P 4.36
Q16: P 3.66, Y 2.57, A 3.52, L 3.43, K 3.96, E 3.87, R 3.34, T 3.23, C 4.54, N 3.33, H 3.58, G 3.82, V 2.88, M 2.66, I 3.82, D 3.98, S 3.72, F 2.32, W 2.67
L4: F 3.31, N 2.58, T 4.13, K 4.07, R 3.7, M 3.9, Q 4.36, S 3.8, A 3.86, C 4.27, E 3.41, G 4.47, H 4.08, D 4.47, P 3.85, V 4.33, W 2.68, I 2.52, Y 3.8
E3: A 2.92, R 2.81, K 3.52, N 3.68, L 2.11, P 3.09, C 2.26, S 3.94, Y 2.46, H 2.47, W 1.93, G 2.43, V 2.45, T 3.72, D 3.4, I 2.51, Q 3.73, M 2.12, F 2.34
D1: E 4.13, P 3.49, W 1.87, F 2.79, C 3.49, Y 2.11, V 3.06, K 3.46, Q 3.59, R 2.71, I 2.38, N 3.77, S 3.31, M 3.67, A 3.15, T 3.71, H 3.02
C6: V 2.25, N 3.87, M 3.74, S 3.73, D 5.31, I 2.61, W 2.29, P 3.64, H 4.45, K 4.36, L 3.41, E 4.3, A 3.61, F 2.99, R 3.54, T 3.76, Y 3
K2: M 3.65, V 3.53, D 3.46, F 2.63, C 4.2, H 3.51, G 3.05, R 3.12, N 3.95, W 4.1, A 3.54, P 3.19, Q 3.78, S 3.87, T 3.79, Y 3.2, E 4.01, I 2.84, L 3.18
A11: K 4.3, C 3.23, L 3.46, H 3.29, V 3.13, D 4.08, E 3.26, N 4.24, Q 3.41, M 2.76, F 4.14, S 3.67, R 3.85, G 3.95, T 4.25, Y 2.93, I 3.52, P 3.87, W 2.84
H15: I 2.99, F 3.62, G 3.15, D 4.23, Q 3.02, K 3.44, N 3.33, A 3.48, W 3.33, L 3.52, C 4.26, S 3.78, T 3.57, Y 3, V 2.95, M 2.96, E 3.56, P 3.54
P13: S 1.97, G 3, W 2.31, F 2.31, K 3.15, Y 2.79, T 3.34, V 2.8, N 3.79, L 3.76, R 3.41, D 3.44, E 3.44, A 3.04, C 4.78, I 3.69, M 2.71, H 3.64, Q 3.88
D12: Y 2.75, C 4.09, N 3.12, M 2.72, V 3.21, L 2.53, H 2.89, T 3.01, P 2.78, F 2.73, E 3.78, A 3.52, W 3.48, G 3.13, Q 3.4, R 3.21, I 2.45, K 3.81, S 3.06

Variants of: B2
Experiment: as above
Conditions: c terminus: a fixed tail appended

Protein stability index, by site and new letter:
V22: T 2.94, W 3.04, Y 1.49
S23: Q 1.94, E 2.56, N 2.32, A 2.01, D 3.05, L 2.18, G 1.9, K 2.3, I 1.48, M 2.87, W 1.07, T 1.75, H 1.8, Y 1.73, R 1.99, P 2.99, C 1.63, F 2.07
A24: R 2.01, P 2.63, E 1.99, C 2.99, Q 2.18, G 3.39, D 2.76, T 2.47, M 1.14, F 2.26, I 2.88, S 2.08, V 2.61, H 2.58, L 1.65, W 2, Y 2.32, N 3.37, K 2.97

— the supplement of paper PMC10567573
